Test results reported in patent EP4335867A1 (Cellemedy Co., Ltd, dated 2024).

Target: T1, human transferrin receptor-Fc tag standard (human, UniProt P02786 89-760, limits assumed)
T1 construct: Coated on a 96 well plate at 2 ug/ml; also called hTfR; not shown: Fc tag
Assay: ELISA on plate-bound hTfR-Fc with anti-His detection; Kd calculated from an expected saturation point, since the curve was not saturated

T1 sequence (P02786 89-760 limits assumed): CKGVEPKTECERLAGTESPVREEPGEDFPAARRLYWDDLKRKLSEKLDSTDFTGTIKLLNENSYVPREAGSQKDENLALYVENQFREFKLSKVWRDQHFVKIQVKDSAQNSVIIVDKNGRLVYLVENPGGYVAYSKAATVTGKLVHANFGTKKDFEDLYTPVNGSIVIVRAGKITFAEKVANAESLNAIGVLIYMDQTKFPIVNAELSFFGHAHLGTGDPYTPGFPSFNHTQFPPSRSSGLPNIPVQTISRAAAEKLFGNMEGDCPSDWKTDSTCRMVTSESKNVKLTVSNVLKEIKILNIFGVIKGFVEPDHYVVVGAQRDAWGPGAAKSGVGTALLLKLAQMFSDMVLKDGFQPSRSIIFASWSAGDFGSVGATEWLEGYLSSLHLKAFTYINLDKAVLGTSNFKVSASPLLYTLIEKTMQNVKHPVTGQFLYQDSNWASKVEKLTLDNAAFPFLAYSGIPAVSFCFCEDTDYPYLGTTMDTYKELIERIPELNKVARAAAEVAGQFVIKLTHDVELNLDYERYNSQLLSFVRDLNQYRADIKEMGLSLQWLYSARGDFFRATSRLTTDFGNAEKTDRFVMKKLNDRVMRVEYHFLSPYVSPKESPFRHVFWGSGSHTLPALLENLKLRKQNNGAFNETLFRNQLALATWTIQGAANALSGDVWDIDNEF

Kd: ~4.4 µM
B1: huHF_Mutant2-dual (designed binder)
chain: MTTASTSQVRQNYHAASEAAINAQINLELYASYVYLSMSYYFDRDDVALKNFAKYFLHQSHEEREHAEKLMKLQNQRGGRIALADIQKPDCDDGGSYGSLYAFDIWESGLNAMECALHLEKNVNQSLLALHALATAKNDPHLCDFIETHYLNEQVKAIKELGDHVTNLRKMGAPESGLAEYLFDKHTLGDSDNESMPSFITLASLSTWEGYFDF
notes: Spherical nanoparticle of 24 self-assembled monomers, made in E. coli; not shown: A hexa-His tag is present (Ni-NTA purification, anti-His detection)
